According to patent publication US20190316116A1 (MONASH UNIVERSITY, published 2019):

Target: lysozyme (UniProt P00698 19-147)
Experiment: method not stated (data not shown)

Chain of lysozyme (P00698 19-147 limits assumed): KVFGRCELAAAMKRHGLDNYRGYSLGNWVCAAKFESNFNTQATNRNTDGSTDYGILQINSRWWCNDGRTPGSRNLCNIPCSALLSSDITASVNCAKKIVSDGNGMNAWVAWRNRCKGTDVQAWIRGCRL

B1: FN3con.DE0.4.1_graft_v1 (designed binder)
chain: PSPPGNLRVTDVTSTSVTLSWRGYPWATGYRVEYREAGGEWKEVTVPGDLSHRYTVTGLKPGTEYEFRVRAVNRVGRTFDTPGPSSVSVTT
notes: Made by gene synthesis, expressed in E. coli and purified; also called the designed graft; the graft
With B1 as the binder, how does the Kd read?
The Kd was about 100 µM.
